What is called Kd is a measure of binding affinity in units of concentration. The term koff denotes a measure of how fast the partners let go of each other. The term kon denotes the rate constant with which the complex forms.

This experiment concerns the target T1, recombinant human TIGIT (human, UniProt Q495A1 22-141, limits assumed).
T1 construct: recombinant human TIGIT used in Carterra SPR; also called hTIGIT
T1 sequence (looked up): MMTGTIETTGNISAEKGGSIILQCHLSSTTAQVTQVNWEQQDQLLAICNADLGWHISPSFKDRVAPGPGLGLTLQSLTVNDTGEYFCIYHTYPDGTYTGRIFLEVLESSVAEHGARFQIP
As to the kind of experiment: SPR Carterra, average. On the procedure:
Binding affinities of VHH-Fc proteins to recombinant human TIGIT were measured by SPR using a Carterra instrument (Table 10A). […] Average values reported from measurements from 1-2 samples.

B1: TIGIT-SC80 (Fc fusion)
VHH: EVQLVESGGGLVQPGGSLRLSCAASGNIPPINAMGWFRQAPGKEREFVAAINYSGGSTYYADSVKGRFTISADNSKNTAYLQMNSLKPEDTAVYYCARWHYDILTGYYWLDSWGQGTLVTVSS
notes: VHH-Fc fusion in assay
Consider B1, for which the Kd stood at 28.3 nM, the koff was found to be 0.00179 s⁻¹ and the kon came to 63200 M⁻¹ s⁻¹.

B2: TIGIT-SC79 (Fc fusion)
VHH: EVQLVESGGGLVQPGGSLRLSCAASGSILSINTMGWFRQAPGKEREFVAAITSAGGTTYYADSVKGRFTISADNSKNTAYLQMNSLKPEDTAVYYCARWHYDILTGYYWLDSWGQGTLVTVSS
notes: VHH-Fc fusion in assay
In the case of B2, the Kd came to 56 nM, the koff was 0.00445 s⁻¹ and the kon stood at 79500 M⁻¹ s⁻¹.

B3: TIGIT-SC99 (Fc fusion)
VHH: EVQLVESGGGLVQPGGSLRLSCAASGSIFSMNTMGWFRQAPGKEREFVGAINWSGGSTIYADSVKGRFTISADNSKNTAYLQMNSLKPEDTAVYYCARWDYDILTNYYWLEYWGQGTLVTVSS
notes: VHH-Fc fusion in assay
For the molecule B3, the Kd came to 52.4 nM, the koff was determined as 0.00428 s⁻¹ and the kon is 81600 M⁻¹ s⁻¹.

B4: TIGIT-SC161 (Fc fusion)
VHH: EVQLVESGGGLVQPGGSLRLSCAASGFTFSPSWMGWFRQAPGKEREWVASVLRGGYTWYADSVKGRFTISADNSKNTAYLQMNSLKPEDTAVYYCTTDRAIGVRPLFDHWGQGTLVTVSS
notes: VHH-Fc fusion in assay
For the molecule B4, the Kd worked out at 33.9 nM, the koff is 0.00146 s⁻¹ and the kon amounted to 57100 M⁻¹ s⁻¹.

B5: TIGIT-SC180 (Fc fusion)
VHH: EVQLVESGGGLVQPGGSLRLSCAASGFTLNDYAMGWFRQAPGKERELVAWIARYDGSTLYADSVKGRFTISADNSKNTAYLQMNSLKPEDTAVYYCASEVASGETDYWGQGTLVTVSS
notes: VHH-Fc fusion in assay
For B5, the Kd amounted to 21.7 nM, the koff is 0.0101 s⁻¹ and the kon was found to be 465000 M⁻¹ s⁻¹.

B6: TIGIT-SC154 (Fc fusion)
VHH: EVQLVESGGGLVQPGGSLRLSCAASGFAFSSDWMGWFRQAPGKEREWVASVLRGGYTWYADSVKGRFTISADNSKNTAYLQMNSLKPEDTAVYYCAGDYRGFEMAFDPWGQGTLVTVSS
notes: VHH-Fc fusion in assay
Turning to B6, the Kd is 22.5 nM, the koff came to 0.00219 s⁻¹ and the kon was 130000 M⁻¹ s⁻¹.

B7: TIGIT-SC147 (Fc fusion)
VHH: EVQLVESGGGLVQPGGSLRLSCAASGTITSAVFMGWFRQAPGKEREFVAAVIWRGGSLKSYADSVKGRFTISADNSKNTAYLQMNSLKPEDTAVYYCAKLAVAGNYYYYGMDVWGQGTLVTVSS
notes: VHH-Fc fusion in assay
Turning to B7, the Kd turned out to be 24 nM, the koff stood at 0.0115 s⁻¹ and the kon was 383000 M⁻¹ s⁻¹.

B8: TIGIT-SC56 (Fc fusion)
VHH: EVQLVESGGGLVQPGGSLRLSCAASGNTFSGGFMGWFRQAPGKEREWVASVLRGGYTWYADSVKGRFTISADNSKNTAYLQMNSLKPEDTAVYYCAHSKGYNWFDPWGQGTLVTVSS
notes: VHH-Fc fusion in assay
In the case of B8, the Kd stood at 26.9 nM, the koff amounted to 0.000801 s⁻¹ and the kon worked out at 29800 M⁻¹ s⁻¹.

B9: TIGIT-SC73 (Fc fusion)
VHH: EVQLVESGGGLVQPGGSLRLSCAASGSSFSLADYAMGWFRQAPGKEREFVAAISYNVGTTYYADSVKGRFTISADNSKNTAYLQMNSLKPEDTAVYYCARWSAKRHSDTMTYYMDVWGQGTLVTVSS
notes: VHH-Fc fusion in assay
For B9, the Kd worked out at 21.8 nM, the koff was determined as 0.00276 s⁻¹ and the kon was 126000 M⁻¹ s⁻¹.

B10: TIGIT-SC89 (Fc fusion)
VHH: EVQLVESGGGLVQPGGSLRLSCAASGSMSSINAMGWFRQAPGKEREFVAAINYEGDRTYYADSVKGRFTISADNSKNTAYLQMNSLKPEDTAVYYCARWTRGLVSGTYYYYMDVWGQGTLVTVSS
notes: VHH-Fc fusion in assay
B10: the Kd was determined as 30.8 nM, the koff was 0.00294 s⁻¹ and the kon was found to be 106000 M⁻¹ s⁻¹.

B11: TIGIT-SC90 (Fc fusion)
VHH: EVQLVESGGGLVQPGGSLRLSCAASGDTFSSKAMGWFRQAPGKEREFVAAIRWSVSSTYYADSVKGRFTISADNSKNTAYLQMNSLKPEDTAVYYCARWTRGLVSGTYYYYMDVWGQGTLVTVSS
notes: VHH-Fc fusion in assay
On to B11, for which the Kd turned out to be 59.5 nM, the koff was 0.00301 s⁻¹ and the kon came out at 50500 M⁻¹ s⁻¹.

B12: TIGIT-SC2 (Fc fusion)
VHH: EVQLVESGGGLVQPGGSLRLSCAASGFTLSSNWMGWFRQAPGKEREMVAAIDWSGGSALYADSVKGRFTISADNSKNTAYLQMNSLKPEDTAVYYCAKDALSNSARFDHWGQGTLVTVSS
notes: VHH-Fc fusion in assay
In the case of B12, the Kd came out at 22.1 nM, the koff was determined as 0.00274 s⁻¹ and the kon stood at 124000 M⁻¹ s⁻¹.

B13: TIGIT-SC125 (Fc fusion)
VHH: EVQLVESGGGLVQPGGSLRLSCAASGFTLSGNWMGWFRQAPGKEREMVAAIDWSGGSALYADSVKGRFTISADNSKNTAYLQMNSLKPEDTAVYYCAKDALSNSARFDHWGQGTLVTVSS
notes: VHH-Fc fusion in assay
On to B13, for which the Kd was 61.3 nM, the koff was found to be 0.00807 s⁻¹ and the kon came out at 142000 M⁻¹ s⁻¹.

B14: TIGIT-SC124 (Fc fusion)
VHH: EVQLVESGGGLVQPGGSLRLSCAASGSIFSSNWMGWFRQAPGKEREMVAAIDWSGGSALYADSVKGRFTISADNSKNTAYLQMNSLKPEDTAVYYCAKDALSNSARFDHWGQGTLVTVSS
notes: VHH-Fc fusion in assay
In the case of B14, the Kd came out at 51 nM, the koff was found to be 0.00531 s⁻¹ and the kon is 105000 M⁻¹ s⁻¹.

B15: TIGIT-SC87 (Fc fusion)
VHH: EVQLVESGGGLVQPGGSLRLSCAASGSIDTINTMGWFRQAPGKEREFVAAITPSSRTTYYVDSVKGRFTISADNSKNTAYLQMNSLKPEDTAVYYCARWGGVTFGGVYPLEYWGQGTLVTVSS
notes: VHH-Fc fusion in assay
Regarding B15, the Kd came to 28.7 nM, the koff came out at 0.00564 s⁻¹ and the kon came out at 196000 M⁻¹ s⁻¹.

B16: TIGIT-SC12 (Fc fusion)
VHH: EVQLVESGGGLVQPGGSLRLSCAASGRTFSAYGMGWFRQAPGKEREFVAAITPSSRTTYYADSVKGRFTISADNSKNTAYLQMNSLKPEDTAVYYCAKDNWGEWLMPWWGQGTLVTVSS
notes: VHH-Fc fusion in assay
Turning to B16, the Kd was found to be 22.8 nM, the koff was 0.0049 s⁻¹ and the kon amounted to 221000 M⁻¹ s⁻¹.

B17: TIGIT-SC102 (Fc fusion)
VHH: EVQLVESGGGLVQPGGSLRLSCAASGSTFSKHHAMGWFRQAPGKEREFVAAIRWSGGNTYYADSVKGRFTISADNSKNTAYLQMNSLKPEDTAVYYCARWYSSSGDYYYMDVWGQGTLVTVSS
notes: VHH-Fc fusion in assay
With B17, the Kd came to 33.5 nM, the koff is 0.00146 s⁻¹ and the kon came out at 43500 M⁻¹ s⁻¹.

B18: TIGIT-SC185 (Fc fusion)
VHH: EVQLVESGGGLVQPGGSLRLSCAASGRTFSFMGWFRQAPGKEREWVASVLRGGYTWYADSVKGRFTISADNSKNTAYLQMNSLKPEDTAVYYCTTDRGYNWNYDWGQGTLVTVSS
notes: VHH-Fc fusion in assay
Take B18: the Kd was found to be 80.3 nM, the koff turned out to be 0.00621 s⁻¹ and the kon is 141000 M⁻¹ s⁻¹.

B19: TIGIT-SC28 (Fc fusion)
VHH: EVQLVESGGGLVQPGGSLRLSCAASGRTFSTDAMGWFRQAPGKEREFVATINWKDGFTYYADSVKGRFTISADNSKNTAYLQMNSLKPEDTAVYYCAGVGHDYGDYLFDYWGQGTLVTVSS
notes: VHH-Fc fusion in assay
With B19, the equilibrium dissociation constant (Kd) came to 23.9 nM, the koff came out at 0.00179 s⁻¹ and the kon came to 75100 M⁻¹ s⁻¹.

Source of the values: patent US20260184782A1 (TWIST BIOSCIENCE, published 2026).
